Results on 4 substances are retold here after US20180222985A1, “ANTIBODIES AGAINST HUMAN CSF-1R FOR USE IN INDUCING LYMPHOCYTOSIS IN LYMPHOMAS OR LEUKEMIAS” (Hoffmann-La Roche Inc., priority 2015, published 2018).

In assay [1] the target is human mutant CSF-1R L301S Y969F (human) (UniProt P07333). Description: cell-based or functional assay.
Assay [2] has as its target human wildtype CSF-1R (wt CSF-1R) (human, UniProt P07333 20-972). Description: cell-based or functional assay.
A further assay relates to MEC1 cells. As to the kind of experiment: CLL xeno-transplantation system: MEC1 cells i.v. in Rag2−/−γc−/− mice. Type of assay: in vivo.
Another assay concerns PBMCs from CLL patients. Description: In vitro cultures and cell-depletion assays from CLL samples (PBMCs). The format is cell-based, human. The settings on record: etanercept 10 μg/ml, 24 h; 3 out of 4 samples.

Where only a bound is given, the exact number is not on record here.

Protocol for MEC1 cells: FIG. 4 Anti-leukemic effect of anti-CSF1R moAb in the CLL xeno-transplantation system. • (A-B-C-D-E) i.v. MEC1 challenged (day 0) Rag2^−/−γc^−/− mice were treated i.v. (day +11, +25) with 30 mg/Kg of anti-CSF1R moAb (n=3, white circles) or left untreated (n=4, black circles) and killed at day 27 (A). The mean value of the absolute number of CD11b+ F4/80+ cells gated on CD45+ in SP (B) and BM (C) is shown in graphs. The mean value of the absolute number of human CD19+ cells in the BM is shown in graph (D). The mean value of the absolute number of human CD19+ cells and of Ann-PI+ cells gated on hCD19+ cells in SP is shown in graphs (E). Data are from one representative experiment of three. Statistical analysis: *p<0.05, **p<0.01, Student's t test. (F-G-H-I) i.v. MEC1 challenged (day 0) Rag2^−/−γc^−/− mice were treated i.v. (day +11, +25) with 30 mg/Kg of anti-CSF1R moAb) (n=7, white circles) or left untreated (n=7, black circles) and killed at days 27 and 29, 48 h and 96 h after the last moAb injection (F). The mean value of the absolute number of human CD19+ cells and of Ann-PI+ cells gated on hCD19+ cells in SP at days 27, 29 is shown in graphs (G). […]
FIG. 5 Anti-leukemic effect and survival impact of anti-CSF1R moAb in the CLL xeno-transplantation system. • (A-B-C) i.v. MEC1 challenged (day 0) Rag2^−/−γc^−/− mice were treated i.v. (day +11, +25) with 30 mg/Kg of anti-CSF1R moAb (n=3, white circles) or left untreated (n=4, black circles) and killed at day 27 (A). […] Statistically significant differences were calculated using the Student t test. **p<0.01, ***p<0.001. (D-E) i.v. MEC1 challenged (day 0) Rag2^−/−γc^−/− mice were left untreated (n=10, black circles) or treated with: 30 mg/Kg i.v. of anti-CSF1R moAb (n=11, white circles; day +11, +25); or 30 mg/Kg i.p. of anti-CD20 moAb GA101 (n=10, blue circles; day +11, +25); or 30 mg/Kg i.p. of anti-CD20 moAb GA101 (day +11, +25)+30 mg/Kg i.v. of anti-CSF1R moAb (day +18, +32) (n=10, violet circles) and monitored for survival (D). […]
Protocol for PBMCs from CLL patients: Statistically significant differences were calculated using the Student t test. *p<0.05 • (C) hCD19+ CDS+ depletion after 24 h treatment (n=3) with 100 μM, 500 μM, 1000 μM of clodrolip, with (black bar) or without (white bar) etanercept (10 n/ml) was calculated by the following formula: 100−% remaining cells, where % remaining cells=(Absolute number in treated samples/Absolute number in untreated samples)×100. (*p<0.05), Student's t test. • (D) hCD19+ CDS+ depletion after 24 h treatment (n=3) with clodrolip 1000 μM, with (black bar) or without (white bar) blocking anti-TRAIL-R2 moAb (1 μg/ml) was calculated by the following formula: 100−% remaining cells, where % remaining cells=(Absolute number in treated samples/Absolute number in untreated samples)×100.
Fresh PBMCs from untreated CLL patients were seeded, as triplicates, at 3×10^6 cells/ml in culture medium and treated with clodrolip or PBS liposomes (100, 500, 1000 μM) for 30 min and 24 h, in presence or absence of etanercept (10 μg/ml), a TNF-α antagonist from Pfizer or anti-TRAIL-R2 (human, 1 μg/ml) moAb (HS201) from Adipogen AG. […] The specific percentage of remaining leukemic CD19+CD5+ or CD14+ cells in treated samples was calculated as (absolute number in treated samples/absolute number in control samples)×100. […]

Take “Anti CSF-1R SC 2-4A5 (Santa Cruz Biotechnology, US) (antibody)”: the Mutant CSF-1R IC30 (30 percent inhibition of cell viability, CellTiterGlo, 3D spheroid culture) in assay [1] is 2.56 µg/mL. Further, in assay [2], the wtCSF-1R IC30 (30 percent inhibition of cell viability, CellTiterGlo, 3D spheroid culture) was 16.6 µg/mL.
As for “GA101: glycoengineered humanized B-Ly1 antibody BHH6-B-KV1 GE, type II anti-human CD20”, the “survival of mice, p vs untreated control (Log-Rank test)” value in the assay on MEC1 cells (30 mg/Kg each, single agents days +11, +25, combination GA101 days +11, +25 + anti-CSF1R days +18, +32) is given as 0.006.
In assay [1], “goat polyclonal anti-CSF-1R antibody ab10676 (abcam)” returned a Mutant CSF-1R IC30 (30 percent inhibition of cell viability, CellTiterGlo, 3D spheroid culture) of more than 20 µg/mL and a Mutant CSF-1R: inhibition of cell viability at 20 µg/ml of 0%. Also, the wtCSF-1R IC30 (30 percent inhibition of cell viability, CellTiterGlo, 3D spheroid culture) in assay [2] was determined as 14.2 µg/mL.
For etanercept, in the assay with MEC1 cells (etanercept 10 mg/Kg i.p. from day +10, CSF1R moAb 30 mg/Kg i.v. days +11, +25, day 29), the “effect on anti-leukemic effect of CSF1R moAb in the SP” value is “abrogated”. Moreover, in the assay on MEC1 cells (etanercept 10 mg/Kg i.p. from day +10, clodrolip 60 μl i.v. days +11, +25, day 26), the “effect on clodrolip-induced leukemic cell depletion in the BM” value is recorded as “abated”. Besides, the “effect on leukemic cell depletion induced by clodrolip (TNF blocked)” value with PBMCs from CLL patients was “reduced”.
